# Results taken from patent publication US7038022, “Multimeric forms of members of the steroid/thyroid superfamily of receptors” (The Salk Institute for Biological Studies).
# T1: COUP-TF (EAR-3) (UniProt P10589 P10589:1-423)
# T1 sequence: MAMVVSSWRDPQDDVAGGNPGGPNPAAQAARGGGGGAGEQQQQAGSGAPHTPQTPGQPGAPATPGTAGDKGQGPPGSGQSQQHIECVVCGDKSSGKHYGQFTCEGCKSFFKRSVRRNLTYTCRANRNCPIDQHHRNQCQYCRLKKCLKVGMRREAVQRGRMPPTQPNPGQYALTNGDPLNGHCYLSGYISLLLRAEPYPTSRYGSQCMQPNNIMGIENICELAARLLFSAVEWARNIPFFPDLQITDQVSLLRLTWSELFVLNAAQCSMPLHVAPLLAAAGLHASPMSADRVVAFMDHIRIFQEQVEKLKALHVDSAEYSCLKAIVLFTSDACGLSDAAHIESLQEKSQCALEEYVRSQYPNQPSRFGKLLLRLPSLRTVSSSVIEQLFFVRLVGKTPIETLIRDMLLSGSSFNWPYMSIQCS
# T2: hRARα expressed in cells from RS-hRARα (human, UniProt P10276 1-462)
# T2 construct: Intracellular expression; whole cell extracts in the Cos cell gel shifts; also called RS-hRARa; RS-RARα
# T2 sequence (looked up): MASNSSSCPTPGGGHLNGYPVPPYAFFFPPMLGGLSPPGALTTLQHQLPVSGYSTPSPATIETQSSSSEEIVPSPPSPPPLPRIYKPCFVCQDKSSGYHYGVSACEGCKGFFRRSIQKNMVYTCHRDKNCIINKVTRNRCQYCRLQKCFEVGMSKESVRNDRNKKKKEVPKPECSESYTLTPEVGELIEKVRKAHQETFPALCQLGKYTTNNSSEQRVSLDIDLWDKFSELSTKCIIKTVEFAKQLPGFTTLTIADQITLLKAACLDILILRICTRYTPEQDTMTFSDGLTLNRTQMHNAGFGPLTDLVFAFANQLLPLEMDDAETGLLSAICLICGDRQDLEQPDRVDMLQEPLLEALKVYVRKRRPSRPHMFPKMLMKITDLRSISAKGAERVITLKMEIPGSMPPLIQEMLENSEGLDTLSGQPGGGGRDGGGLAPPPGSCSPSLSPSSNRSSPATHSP
# B1: βRARE (dsDNA)
# DNA 1: AGCTTAAGGGTTCACCGAAAGTTCACTCGCATAGCTGCT
# DNA 2: AGCAGCTATGCGAGTGAACTTTCGGTGAACCCTTAAGCT
# B2: CRBPII-RXRE (dsDNA)
# DNA 1: AGCTGTCACAGGTCACAGGTCACAGGTCACAGTTCAAGCT
# DNA 2: AGCTTGAACTGTGACCTGTGACCTGTGACCTGTGACAGCT
# B3: DR-1 (dsDNA)
# DNA 1: AGCTTCAGGTCAGAGGTCAGAGAGCT
# DNA 2: AGCTCTCTGACCTCTGACCTGAAGCT
# B4: COUP-TF RE (ovalbumin) (dsDNA)
# DNA 1: AGCTTGGTGTCAAAGGTCAAACTTAGCT
# DNA 2: AGCTAAGTTTGACCTTTGACACCAAGCT
# B5: hRXRα expressed in cells from RS-hRXRα (receptor, human, UniProt P19793 1-462, looked up)
# chain: MDTKHFLPLDFSTQVNSSLTSPTGRGSMAAPSLHPSLGPGIGSPGQLHSPISTLSSPINGMGPPFSVISSPMGPHSMSVPTTPTLGFSTGSPQLSSPMNPVSSSEDIKPPLGLNGVLKVPAHPSGNMASFTKHICAICGDRSSGKHYGVYSCEGCKGFFKRTVRKDLTYTCRDNKDCLIDKRQRNRCQYCRYQKCLAMGMKREAVQEERQRGKDRNENEVESTSSANEDMPVERILEAELAVEPKTETYVEANMGLNPSSPNDPVTNICQAADKQLFTLVEWAKRIPHFSELPLDDQVILLRAGWNELLIASFSHRSIAVKDGILLATGLHVHRNSAHSAGVGAIFDRVLTELVSKMRDMQMDKTELGCLRAIVLFNPDSKGLSNPAEVEALREKVYASLEAYCKHKYPEQPGRFAKLLLRLPALRSIGLKCLEHLFFFKLIGDTPIDTFLMEMLEAPHQMT
# notes: Intracellular expression; whole cell extracts in the Cos cell gel shifts; also called RS-hRXRa
# B6: RXR-glutathione-S-transferase fusion protein (hRXRα expressed in bacteria as a fusion with glutathione-S-transferase, pGEX-2T) (receptor, human, UniProt P19793 1-462, looked up)
# chain: B5 chain
# notes: GST placed N-terminal as in pGEX-2T vectors; also called RXR-GST; GST-RXR; not shown: glutathione-S-transferase encoded by the pGEX-2T expression vector
# B7: chicken ovalbumin upstream promotor transcription factor (COUP-TF; EAR-3) (receptor, UniProt P10589 1-423, looked up)
# chain: T1 sequence
# notes: mature; Partially purified bacterial protein in the gel shifts; also called bacterially-expressed COUP-TF; RS-COUP-TF product
# Tests used:
# [1] = molecular target: T3, RAR/RXR heterodimer (UniProt P10276;P19793 P10276:1-462,P19793:1-462); assay: EMSA; high affinity; also competes for CRBPII-RXRE binding; conditions: label: 32P
# [2] = molecular target: T3, RAR/RXR heterodimer; assay: EMSA; high affinity; 10-fold excess of unlabeled site competes; conditions: label: 32P
# [3] = molecular target: T4, COUP-TF/RXRalpha heterodimer (UniProt P10589;P19793 P10589:1-423,P19793:1-462); assay: EMSA; heterodimer favored over homodimers; supershifted by RXR antiserum; conditions: tags: RXR as GST fusion; label: 32P
# Experimental: (§1) Bacterial-expressed COUP-TF and RXR-glutathione-S-transferase fusion protein (RXR-GST) were mixed and the resulting complexes analyzed by gel mobility shift assays using ^32P-labeled DR-1 oligonucleotide (i e., SEQ ID No. 21) as probe. The larger RXR fusion protein was used in order to maximize the migratory differences observed between the COUP-TF and RXR complexes.
# (§2) Gel mobility shift assays were performed using ^32P-labeled DR-1 oligonucleotide (SEQ ID No. 21) in the presence of partially-purified COUP-TF (500 ng) and increasing amounts of partially-purified RXR (1×–50 ng) as indicated in FIG. 1. Either 0.3 μl or 1 μl of RXR-specific antiserum was included in the assays (shown in lanes 11 and 12, respectively). The positions of the RXR-specific and COUP-TF-specific complexes are indicated in FIG. 1 by a plain line ("–"). […] The free probe was run off the gel and is not shown.
# [4] = molecular target: T1, COUP-TF (EAR-3); assay: EMSA; COUP-TF-specific complex, 500 ng protein; conditions: tags: none, pET-8C bacterial expression, partially purified; label: 32P
# Experimental: as §1, §2
# [5] = molecular target: T4, COUP-TF/RXRalpha heterodimer; assay: EMSA; supershift data similar to DR-1; conditions: tags: RXR as GST fusion; label: 32P
# [6] = molecular target: T2, hRARα expressed in cells from RS-hRARα; assay: gel mobility shift, βRARE probe, whole-cell extracts of transfected Cos cells
# Experimental: DNA-protein complexes were resolved on a 4% polyacrylamide gel in 0.5×TBE (1×TBE=90 mM Tris, 90 mM boric acid, 2 mM EDTA).
# [7] = molecular target: the molecule itself; assay: gel mobility shift, 32P-labeled DR-1 probe
binder,measurement,setting,value
B1,binding result,[1],binds
B2,binding result,[2],binds
B3,binding result,[3],binds
same,binding result,[4],binds
B4,binding result,[5],binds
B5,binding result,[6],binds
B6,binding result,[7],binds
B7,binding result,[7],binds
